Results as given in patent publication US20100285028A1.

Target: von Willebrand factor (mouse) (UniProt Q8CIZ8)
Assay: cell-based or functional assay

Chain of UniProt Q8CIZ8 (Q8CIZ8 764-2813 limits assumed): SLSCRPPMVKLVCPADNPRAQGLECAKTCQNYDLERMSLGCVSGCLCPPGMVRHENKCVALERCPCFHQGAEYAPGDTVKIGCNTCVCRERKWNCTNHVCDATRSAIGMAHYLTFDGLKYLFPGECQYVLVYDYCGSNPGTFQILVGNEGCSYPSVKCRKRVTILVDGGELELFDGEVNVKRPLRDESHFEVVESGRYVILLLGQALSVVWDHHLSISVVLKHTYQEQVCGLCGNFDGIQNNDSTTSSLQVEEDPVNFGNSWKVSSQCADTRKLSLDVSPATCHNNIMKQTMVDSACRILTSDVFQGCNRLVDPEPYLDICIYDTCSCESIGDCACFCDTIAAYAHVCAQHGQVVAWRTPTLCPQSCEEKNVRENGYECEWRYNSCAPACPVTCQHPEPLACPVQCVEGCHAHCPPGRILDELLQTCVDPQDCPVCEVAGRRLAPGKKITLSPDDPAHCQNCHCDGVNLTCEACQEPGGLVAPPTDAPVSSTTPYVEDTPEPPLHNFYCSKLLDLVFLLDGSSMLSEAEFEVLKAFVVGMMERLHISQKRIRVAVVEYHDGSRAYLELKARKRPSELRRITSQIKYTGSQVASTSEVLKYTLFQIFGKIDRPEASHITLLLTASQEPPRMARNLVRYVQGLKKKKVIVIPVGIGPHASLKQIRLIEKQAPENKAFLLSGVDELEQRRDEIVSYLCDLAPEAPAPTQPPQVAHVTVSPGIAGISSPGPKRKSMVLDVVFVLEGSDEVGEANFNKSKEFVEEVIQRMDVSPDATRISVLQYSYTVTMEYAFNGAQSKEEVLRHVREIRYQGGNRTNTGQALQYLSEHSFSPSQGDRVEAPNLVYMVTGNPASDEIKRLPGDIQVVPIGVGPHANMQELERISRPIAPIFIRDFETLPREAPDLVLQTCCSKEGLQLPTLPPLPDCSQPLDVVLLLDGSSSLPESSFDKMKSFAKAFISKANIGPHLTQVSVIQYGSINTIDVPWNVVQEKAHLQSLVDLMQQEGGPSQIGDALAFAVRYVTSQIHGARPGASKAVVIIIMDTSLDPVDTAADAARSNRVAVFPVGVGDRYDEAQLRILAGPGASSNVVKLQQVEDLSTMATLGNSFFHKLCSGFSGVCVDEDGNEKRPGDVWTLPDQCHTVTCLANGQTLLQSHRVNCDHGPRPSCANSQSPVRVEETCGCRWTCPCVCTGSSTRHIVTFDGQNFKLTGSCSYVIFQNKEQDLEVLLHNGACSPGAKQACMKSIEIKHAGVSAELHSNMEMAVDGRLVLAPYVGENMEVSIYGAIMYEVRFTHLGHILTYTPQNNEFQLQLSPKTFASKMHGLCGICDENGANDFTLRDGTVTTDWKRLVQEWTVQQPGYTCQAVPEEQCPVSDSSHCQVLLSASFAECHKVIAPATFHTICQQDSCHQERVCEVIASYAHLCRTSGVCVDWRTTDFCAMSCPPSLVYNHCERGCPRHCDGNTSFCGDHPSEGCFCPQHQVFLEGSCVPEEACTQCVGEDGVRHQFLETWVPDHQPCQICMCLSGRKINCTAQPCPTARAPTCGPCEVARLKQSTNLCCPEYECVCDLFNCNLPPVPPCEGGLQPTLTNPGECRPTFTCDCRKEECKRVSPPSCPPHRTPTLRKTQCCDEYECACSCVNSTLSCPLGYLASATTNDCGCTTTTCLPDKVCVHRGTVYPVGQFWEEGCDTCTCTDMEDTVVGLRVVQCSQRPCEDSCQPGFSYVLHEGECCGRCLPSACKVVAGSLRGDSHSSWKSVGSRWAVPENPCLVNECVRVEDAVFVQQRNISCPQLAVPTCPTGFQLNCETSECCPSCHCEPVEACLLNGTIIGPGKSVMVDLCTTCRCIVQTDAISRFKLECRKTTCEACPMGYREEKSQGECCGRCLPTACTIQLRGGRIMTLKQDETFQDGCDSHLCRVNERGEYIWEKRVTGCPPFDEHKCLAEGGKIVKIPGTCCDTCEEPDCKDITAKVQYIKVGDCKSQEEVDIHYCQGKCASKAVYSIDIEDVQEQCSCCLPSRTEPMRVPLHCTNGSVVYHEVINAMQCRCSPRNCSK

Asgr-1 chain of the Ashwell receptor (from UniProt P34927 1-284)
circulating plasma vWF abundance in mice lacking Asgr-1: 1.5 fold
